Reference: article PMC7505474, “Toll-like receptor 4-mediated inflammation triggered by extracellular IFI16 is enhanced by lipopolysaccharide binding” (PLoS Pathogens, 2020)

Legend:
786-O cells [1] = assay: Cytokine release by ELISA in 786-O culture supernatants; format: cell-based, human; settings: 24 h post-treatment, 25 μg/ml, alone or complexed with LPS
Method: (§1) For treatments, cells were stimulated in complete medium with endotoxin-free IFI16 (25 μg/ml), endotoxin-free IFI16ΔHINB (25 μg/ml), MPLA, DPLA, LPS-F583, LPS-EB, LPS-RS, alone or pre-complexed by O/N incubation at 4°C, unless specified otherwise. Additionally, cells were stimulated with supernatants of untreated or UVB-treated U2OS or U2OS-IFI16^-/- cells alone or preincubated O/N at 4°C with LPS-EB, or LPS-RS. LPS variants or lipid A moieties were used at a concentration of 10 ng/ml. All treatments were carried out at 37°C and 5% CO2.
Cytokines secreted in culture supernatants after treatments were analyzed using human IL-6 DuoSet ELISA and human IL-8 DuoSet ELISA (all from R&D Systems), human TNF-α Uncoated ELISA and human IL-1β Uncoated ELISA (Thermo Fisher Scientific) according to the manufacturer’s instructions. Absorbance was measured using a Spark multimode microplate reader (Tecan).

[2] = test system: gram-negative bacteria (E. coli, Klebsiella pneumoniae); assay: Whole cell ELISA on formalin-fixed gram-negative bacteria; format: binding; settings: formalin-fixed bacteria as solid phase
Method: (§2) For whole-cell ELISA, different strains of bacteria (i.e., gram-positive: Staphylococcus aureus, Staphylococcus epidermidis and Streptococcus pyogenes; gram-negative: Escherichia coli and Klebsiella pneumonia) were grown in LB medium without antibiotics and, after washing with 1X PBS, fixed in 0.5% formalin O/N at 4°C. Subsequently, the bacteria were diluted to an OD600 of 0.5 and were used to coat microtiter plates O/N at 37°C. After blocking, increasing concentrations of IFI16 were added to the wells and incubated for 2 h at RT. Anti-IFI16 antibodies against the N-terminus of the protein and HRP-labelled anti-rabbit IgG were then added as primary and secondary antibody, respectively, and binding was detected as described above.

TLR4/MD2 receptor [3] = target: T1, TLR4/MD2 receptor (Homo sapiens, UniProt O00206+Q9Y6Y9); assay: Co-immunoprecipitation with anti-TLR4 antibody from treated 786-O cells; format: cell-based; parameters: endogenous in cells; host or cells: 786-O; settings: 786-O cells stimulated 1 h; extracts untreated or DNase I-treated
Method: Co-immunoprecipitation of TLR4 with interacting proteins was performed using the Dynabeads Protein G Immunoprecipitation Kit (ThermoFisher), according to the manufacturer’s instructions with minor modifications. Briefly, after lysis of treated cells, 20 μg of total cell extracts were kept as the input control, while 90 μg of total cell extracts were incubated for 1 h at RT with 2.5 μg of anti-TLR4 antibody previously conjugated with magnetic beads. The resulting complexes were then washed, eluted, denatured, and subjected to Western blotting as described above. For DNase-treated cell extracts, DNase I (Sigma Aldrich) was added at a 1:10 dilution and incubated for 15 min at RT. Images were acquired, and densitometry of the bands was performed using Quantity One software (version 4.6.9, Bio-Rad). Densitometry values were normalized using the corresponding loading controls.
Target sequence in this assay (O00206 24-839): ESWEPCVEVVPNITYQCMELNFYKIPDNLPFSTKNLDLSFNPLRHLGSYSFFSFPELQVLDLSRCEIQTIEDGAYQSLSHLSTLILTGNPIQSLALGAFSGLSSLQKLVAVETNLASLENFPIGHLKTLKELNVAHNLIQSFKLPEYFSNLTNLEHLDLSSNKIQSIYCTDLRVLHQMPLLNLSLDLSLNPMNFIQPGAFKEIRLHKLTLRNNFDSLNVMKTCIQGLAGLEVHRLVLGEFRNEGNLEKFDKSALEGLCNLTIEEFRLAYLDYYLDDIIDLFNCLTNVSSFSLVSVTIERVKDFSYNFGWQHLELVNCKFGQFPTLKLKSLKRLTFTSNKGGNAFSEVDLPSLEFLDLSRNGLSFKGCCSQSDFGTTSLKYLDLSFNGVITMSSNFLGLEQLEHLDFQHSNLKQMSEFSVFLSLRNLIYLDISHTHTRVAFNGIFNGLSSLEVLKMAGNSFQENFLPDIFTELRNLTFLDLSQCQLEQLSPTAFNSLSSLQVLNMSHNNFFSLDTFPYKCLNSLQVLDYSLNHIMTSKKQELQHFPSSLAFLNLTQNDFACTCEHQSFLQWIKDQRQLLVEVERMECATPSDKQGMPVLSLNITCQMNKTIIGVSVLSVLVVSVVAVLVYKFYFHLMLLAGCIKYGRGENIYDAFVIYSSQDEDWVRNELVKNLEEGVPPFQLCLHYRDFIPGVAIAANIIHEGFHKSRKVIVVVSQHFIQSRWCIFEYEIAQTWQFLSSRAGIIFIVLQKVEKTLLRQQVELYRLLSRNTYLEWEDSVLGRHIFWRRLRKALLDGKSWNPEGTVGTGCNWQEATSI
Target sequence in this assay (Q9Y6Y9 17-160 limits assumed): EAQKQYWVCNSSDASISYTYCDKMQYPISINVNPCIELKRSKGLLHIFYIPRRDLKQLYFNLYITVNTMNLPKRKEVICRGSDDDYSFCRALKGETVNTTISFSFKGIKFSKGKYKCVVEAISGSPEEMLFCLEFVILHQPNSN

THP-1 cells = assay: qRT-PCR of proinflammatory cytokine mRNA in THP-1 cells; format: cell-based, human; settings: 24 h, IFI16 25 μg/ml, over mock-treated cells
Method: as §1
(§3) Quantitative real-time PCR (qRT-PCR) was performed on a CFX96 Real-Time PCR Detection System (Bio-Rad) as previously described. Total RNA was extracted using TRI Reagent (Sigma-Aldrich), and 1 μg was retrotranscribed using an iScript cDNA Synthesis Kit (Bio-Rad). Reverse-transcribed cDNAs were amplified in duplicate using SsoAdvanced Universal SYBR Green Supermix (Bio-Rad). The glyceraldehyde 3-phosphate dehydrogenase (GAPDH) gene was used as housekeeping gene to normalize for variations in cDNA levels. The relative normalized expression after stimulation as compared to control was calculated as fold change = 2 ^-Δ(ΔCT) where ΔCT = CTtarget—CTGADPH and Δ(ΔCT) = ΔCTstimulated - ΔCTcontrol. The primer sequences are available upon request.

[4] = test system: gram-positive bacteria (Staphylococcus aureus, Staphylococcus epidermidis, Streptococcus pyogenes); assay: Whole cell ELISA on formalin-fixed gram-positive bacteria; format: binding; settings: formalin-fixed bacteria as solid phase
Method: as §2

TLR4 = target: T2, TLR4 (Homo sapiens, UniProt O00206); assay: SPR, IFI16 over immobilized TLR4; format: binding; settings: IFI16 31.25–1,000 nM over immobilized TLR4; read-out: equilibrium dissociation constant (KD)
T2 construct: purchased R&D Systems 478-TR-050
T2 sequence (O00206 24-631 limits assumed): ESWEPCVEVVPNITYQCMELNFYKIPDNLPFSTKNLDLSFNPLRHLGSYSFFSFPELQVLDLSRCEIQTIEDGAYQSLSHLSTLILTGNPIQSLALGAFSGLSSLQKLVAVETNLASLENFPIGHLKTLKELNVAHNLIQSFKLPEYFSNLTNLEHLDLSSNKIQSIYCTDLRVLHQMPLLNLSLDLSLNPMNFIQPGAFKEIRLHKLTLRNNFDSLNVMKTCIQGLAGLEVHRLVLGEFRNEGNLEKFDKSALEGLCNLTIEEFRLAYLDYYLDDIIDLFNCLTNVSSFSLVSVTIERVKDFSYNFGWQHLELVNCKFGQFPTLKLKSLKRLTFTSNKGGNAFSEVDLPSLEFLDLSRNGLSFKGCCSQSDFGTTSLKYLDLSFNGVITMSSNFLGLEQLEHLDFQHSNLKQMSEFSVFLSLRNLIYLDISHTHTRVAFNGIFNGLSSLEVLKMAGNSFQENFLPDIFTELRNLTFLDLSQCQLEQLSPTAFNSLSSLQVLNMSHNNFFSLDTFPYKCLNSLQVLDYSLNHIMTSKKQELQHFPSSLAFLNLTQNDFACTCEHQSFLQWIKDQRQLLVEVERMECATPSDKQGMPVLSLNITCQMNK
Method: The Biacore X100 (GE Healthcare) instrument was used for real-time binding interaction experiments. Recombinant TLR4 or TLR4/MD2 complex was covalently immobilized onto the surface of sensor CM5 (cat # BR100012, GE Healthcare) chips via amine coupling. TLR4 was diluted to a concentration of 10 μg/ml in 10 mM sodium acetate at pH 4.0, while TLR4/MD2 complex was diluted to a concentration of 20 μg/ml in the same buffer. Both proteins were injected on CM5 chips at a flow rate of 10 μl/min, upon activation of the carboxyl groups on the sensor surface with 7-min injection of a mixture of 0.2 M EDC and 0.05 M NHS. The remaining esters were blocked with 7-min injection of ethanolamine. Taking into account the ligands (TLR4 or TLR4/MD2) and analytes (IFI16, LPS-EB or IFI16/LPS-EB) molecular weights (MW) of 70 or 90 kDa, and 90, 10 or 100 kDa respectively, the appropriate ligand density (RL) on the chip was calculated according to the following equation: RL = (ligand MW/analyte MW) × Rmax × (1/Sm), where Rmax is the maximum binding signal and Sm corresponds to the binding stoichiometry. The target capture level of the TLR4 or TLR4/MD2 was of 596.0 or 1,223.9 response units (RUs), respectively. […]

TLR4/MD2 receptor [5] = target: T1, TLR4/MD2 receptor; assay: SPR, analytes over immobilized TLR4/MD2; format: binding; parameters: purchased R&D Systems 3146-TM-050/CF
Method: The Biacore X100 (GE Healthcare) instrument was used for real-time binding interaction experiments. Recombinant TLR4 or TLR4/MD2 complex was covalently immobilized onto the surface of sensor CM5 (cat # BR100012, GE Healthcare) chips via amine coupling. TLR4 was diluted to a concentration of 10 μg/ml in 10 mM sodium acetate at pH 4.0, while TLR4/MD2 complex was diluted to a concentration of 20 μg/ml in the same buffer. Both proteins were injected on CM5 chips at a flow rate of 10 μl/min, upon activation of the carboxyl groups on the sensor surface with 7-min injection of a mixture of 0.2 M EDC and 0.05 M NHS. The remaining esters were blocked with 7-min injection of ethanolamine. Taking into account the ligands (TLR4 or TLR4/MD2) and analytes (IFI16, LPS-EB or IFI16/LPS-EB) molecular weights (MW) of 70 or 90 kDa, and 90, 10 or 100 kDa respectively, the appropriate ligand density (RL) on the chip was calculated according to the following equation: RL = (ligand MW/analyte MW) × Rmax × (1/Sm), where Rmax is the maximum binding signal and Sm corresponds to the binding stoichiometry. The target capture level of the TLR4 or TLR4/MD2 was of 596.0 or 1,223.9 response units (RUs), respectively. […] Increasing concentrations of endotoxin-free IFI16, LPS-EB or IFI16/LPS-EB complex were flowed over the CM5 sensor chip coated with TLR4 or TLR4/MD2 at a flow rate of 30 μl/min at 25°C with an association time of 120 s for IFI16 alone and the IFI16/LPS-EB complex, and 180 s for LPS-EB, and a dissociation phase of 180 s for IFI16 and IFI16/LPS-EB complex or 600 s for LPS-EB. A single regeneration step with 50 mM NaOH was performed following each analytic cycle. All the analytes tested were diluted in the HBS-EP+ buffer (GE Healthcare). […]
Target sequence in this assay (O00206 24-631 limits assumed): as above
Target sequence in this assay (Q9Y6Y9 17-160 limits assumed): as the sequence (Q9Y6Y9 17-160 limits assumed) above

NF-κB [6] = assay: ELISA-based transcription factor binding assay, 786-O nuclear extracts; format: cell-based, human; settings: 2 h, IFI16 25 μg/ml, LPS-EB 10 ng/ml
Method: (§4) Nuclear extracts were prepared using NE-PER Nuclear and Cytoplasmic Extraction Reagents (Thermo Fisher Scientific), according to the manufacturer’s instructions. NF-κB binding activity to a DNA probe containing its binding consensus sequence was measured by Universal Transcription Factor Assay Colorimetric kit (Merck Millipore). […] The following biotinylated oligonucleotides were used: sense (biotin): 5’-[…]-3’; antisense: 5’-[…]-3’.

786-O cells [7] = assay: qRT-PCR of proinflammatory cytokine mRNA in 786-O cells; format: cell-based, human; settings: 24 h, IFI16 25 μg/ml, over mock-treated cells
Method: as §1, §3

[8] = In vitro pull-down assay with biotin-LPS-EB and streptavidin beads; format: binding, E. coli O111:B4; settings: 3 μg recombinant protein; 10 μg biotin-LPS-EB
Method: Biotin-labeled LPS-EB (10 μg) was incubated with 30 μl of streptavidin sepharose high performance beads (GE Healthcare) for 3 h at 4°C. After a washing step, 3 μg of recombinant IFI16, PYRIN, HINA, HINB, IFI16ΔHINB, or GST were added and incubated O/N at 4°C. After five washes with 1X PBS with 0.25% Triton X-100 (Sigma-Aldrich), samples were boiled in sample buffer containing SDS and β-mercaptoethanol and centrifuged. Supernatants were separated on a 7.5% or 12% SDS-polyacrylamide gel (Bio-Rad). Gels were stained with Coomassie brilliant blue (Serva Electrophoresis GmbH) for protein visualization.

NF-κB [9] = assay: ELISA-based transcription factor binding assay, THP-1 nuclear extracts; format: cell-based, human; settings: 2 h, IFI16 25 μg/ml, LPS-EB 10 ng/ml
Method: as §4

B1: IFI16: human recombinant IFI16 protein, endotoxin-free (protein)
chain: MGKKYKNIVLLKGLEVINDYHFRMVKSLLSNDLKLNLKMREEYDKIQIADLMEEKFRGDAGLGKLIKIFEDIPTLEDLAETLKKEKLKVKGPALSRKRKKEVDATSPAPSTSSTVKTEGAEATPGAQKRKKSTKEKAGPKGSKVSEEQTQPPSPAGAGMSTAMGRSPSPKTSLSAPPNSSSTENPKTVAKCQVTPRRNVLQKRPVIVKVLSTTKPFEYETPEMEKKIMFHATVATQTQFFHVKVLNTSLKEKFNGKKIIIISDYLEYDSLLEVNEESTVSEAGPNQTFEVPNKIINRAKETLKIDILHKQASGNIVYGVFMLHKKTVNQKTTIYEIQDDRGKMDVVGTGQCHNIPCEEGDKLQLFCFRLRKKNQMSKLISEMHSFIQIKKKTNPRNNDPKSMKLPQEQRQLPYPSEASTTFPESHLRTPQMPPTTPSSSFFTKKSEDTISKMNDFMRMQILKEGSHFPGPFMTSIGPAESHPHTPQMPPSTPSSSFLTTLKPRLKTEPEEVSIEDSAQSDLKEVMVLNATESFVYEPKEQKKMFHATVATENEVFRVKVFNIDLKEKFTPKKIIAIANYVCRNGFLEVYPFTLVADVNADRNMEIPKGLIRSASVTPKINQLCSQTKGSFVNGVFEVHKKNVRGEFTYYEIQDNTGKMEVVVHGRLTTINCEEGDKLKLTCFELAPKSGNTGELRSVIHSHIKVIKTRKNKKDILNPDSSMETSPDFFF
786-O cells [1]
  IL-1β release: neither IFI16 nor IFI16ΔHINB per se or after forming a complex with LPS induced IL-1β release
[2]
  IFI16 binding to surface of gram-negative bacteria: strongly associated with the surface of both gram-negative bacteria species
TLR4/MD2 receptor [3]
  Co-immunoprecipitation with TLR4/MD2: co-immunoprecipitated with TLR4/MD2 receptor
THP-1 cells
  IL-1β gene expression fold induction: 72 fold
[4]
  IFI16 binding to gram-positive bacteria: no IFI16 binding could be detected
TLR4
  Kd: 130 nM
TLR4/MD2 receptor [5]
  dissociation rate constant (Kd): 0.00614 s⁻¹
TLR4/MD2 receptor [5]; association rate constant
  Ka: 9070 M⁻¹ s⁻¹
TLR4/MD2 receptor [5]; dissociation rate constant
  dissociation rate constant (koff): 0.00614 s⁻¹
TLR4/MD2 receptor [5]; maximum response
  Rmax: 26.09 RU
TLR4/MD2 receptor [5]; text / Fig 8C legend, read-out: equilibrium dissociation constant (KD)
  Kd: 680 nM
NF-κB [6]
  NF-κB binding activity fold induction vs untreated cells: 2.2 fold
786-O cells [7]
  IL-1β gene expression fold induction: 13 fold
[8]
  Pull-down by biotin-LPS-EB (Coomassie band): readily detect a highly reproducible ~100-kDa band
NF-κB [9]
  NF-κB binding activity fold induction vs untreated cells: 2.4 fold
